This is an account of results in patent publication US6960454B2, “Methods for making and using a thermophilic enzyme as a β-glycosidase” (Director-General of Agency of Industrial Science and …, priority 1998, dated 2005).

Data set [1] deals with T1, Sβ-gly from S. solfataricus strain MT-4 (Saccharolobus solfataricus, UniProt P22498). The settings on record: cited from earlier work; for Km / kcat: Sβ-gly, 75° C. and pH 6.5; for efficiency of hydrolysis by Sβ-gly: in words.
For data set [2], the target named is his-tagged BGPh from P. horikoshii (His-BGPh) (Pyrococcus horikoshii, UniProt O58104). The format is biochemical. The settings on record: for efficiency of hydrolysis by His-BGPh: in words; for kcat: His-BGPh, 90° C. and pH 6.0. The procedure: (§1) The enzyme reactions were carried out at 90° C. in a solution […] containing the substrate and the purified His-BGPh in 50 mM phosphate buffer (pH 6) with 0.1% Triton X-100 and 0.3 M NaCl. For the hydrolysis of p-nitrophenyl (p-Nph) β-D-saccharides, the reaction was terminated by the addition of 1 M Na2CO3 (1 ml), then centrifuged at 15,000×g for 10 min. The concentration of the p-Nph group in the supernatant was quantified by measuring the absorbance at 400 nm. For the hydrolysis of β-D-glucoside, the released glucose was analyzed with a Glucose C-II Test kit (Wako Pure Chemicals, Japan). Initial velocities were obtained directly from the initial slopes of the time course plots. The Km and kcat values were calculated using the Michaelis-Menten equation and the least squares method (12). The subsite affinity for a long alkyl chain was determined using the method reported previously (13-15) on the basis of the subsite theory (16).

Data set [3] deals with T1, Sβ-gly from S. solfataricus strain MT-4. Put plainly: Kinetic parameters of substrate hydrolysis by Sβ-gly (from references 7, 21). It counts as biochemical, Sulfolobus solfataricus.
A short description of a further data set: Optimum temperature. The format is biochemical. The settings on record: p-Nph-β-D-Glcp; listed as purified enzyme. The procedure:
The enzyme reactions were carried out in duplicate at temperatures ranging from 50° C. to 100° C. for 30 min. Optical density measurements at A405 were performed as described for the enzyme assays.

Substrate in data set [4]: O=[N+]([O-])c1ccc(O[C@@H]2O[C@H](CO)[C@@H](O)[C@H](O)[C@H]2O)cc1
Put plainly: purified protein, by the assay type. The conditions noted are these: other: His-BGPh, 90° C. and pH 6.0. The format is biochemical.

Substrate in data set [5]: O=[N+]([O-])c1ccc(O[C@@H]2OC[C@@H](O)[C@H](O)[C@H]2O)cc1
Put plainly: purified protein, by the assay type. The format is biochemical. The conditions noted are these: other: His-BGPh, 90° C. and pH 6.0.

Substrate in data set [6]: CCCCCCCCCCCO[C@@H]1O[C@H](CO)[C@@H](O)[C@H](O)[C@H]1O
Put plainly: purified protein, by the assay type. The settings on record: other: His-BGPh, 90° C. and pH 6.0. It counts as biochemical.

Substrate in data set [7]: CCCCCCO[C@@H]1O[C@H](CO)[C@@H](O)[C@H](O)[C@H]1O
As to the kind of experiment: purified protein, by the assay type. The format is biochemical. The conditions noted are these: other: His-BGPh, 90° C. and pH 6.0.

Substrate in data set [8]: CCCCCCCCCO[C@@H]1O[C@H](CO)[C@@H](O)[C@H](O)[C@H]1O
Put plainly: purified protein, by the assay type. The format is biochemical. The settings on record: other: His-BGPh, 90° C. and pH 6.0.

Substrate in data set [9]: O=[N+]([O-])c1ccc(O[C@@H]2O[C@H](CO)[C@@H](O)[C@H](O)[C@@H]2O)cc1
Put plainly: purified protein, by the assay type. The format is biochemical. The settings on record: other: His-BGPh, 90° C. and pH 6.0.

Substrate in data set [10]: CCCCCO[C@@H]1O[C@H](CO)[C@@H](O)[C@H](O)[C@H]1O
Put plainly: purified protein, by the assay type. It counts as biochemical. The settings on record: other: His-BGPh, 90° C. and pH 6.0.

Substrate in data set [11]: CCCCCCCCCCCCO[C@@H]1O[C@H](CO)[C@@H](O)[C@H](O)[C@H]1O
As to the kind of experiment: purified protein, by the assay type. The format is biochemical. The settings on record: other: His-BGPh, 90° C. and pH 6.0.

Substrate in data set [12]: CCCCCCCCO[C@@H]1O[C@H](CO)[C@@H](O)[C@H](O)[C@H]1O
Put plainly: purified protein, by the assay type. It counts as biochemical. The settings on record: other: His-BGPh, 90° C. and pH 6.0.

Substrate in data set [13]: CCCCCCCCCCO[C@@H]1O[C@H](CO)[C@@H](O)[C@H](O)[C@H]1O
Put plainly: purified protein, by the assay type. The settings on record: other: His-BGPh, 90° C. and pH 6.0. It counts as biochemical.

Substrate in data set [14]: CO[C@@H]1O[C@H](CO)[C@@H](O)[C@H](O)[C@H]1O
Put plainly: purified protein, by the assay type. It counts as biochemical. The conditions noted are these: other: His-BGPh, 90° C. and pH 6.0.

Substrate in data set [15]: O=[N+]([O-])c1ccc(O[C@@H]2O[C@H](CO)[C@H](O)[C@H](O)[C@H]2O)cc1
As to the kind of experiment: purified protein, by the assay type. The format is biochemical. The settings on record: other: His-BGPh, 90° C. and pH 6.0.

The nature of data set [16]: Subsite affinity of BGPh for a long alkyl chain. It counts as biochemical. The conditions noted are these: from kcat/Km of n-Dodecyl- vs Methyl-β-D-Glcp. The procedure:
as §1

Substrate in data set [17]: OCc1ccccc1O[C@@H]1O[C@H](CO)[C@@H](O)[C@H](O)[C@H]1O
As to the kind of experiment: purified protein, by the assay type. The conditions noted are these: other: His-BGPh, 90° C. and pH 6.0.

Data set [18] in a line: Heat treatment of the purified enzyme at 95° C. The format is physicochemical. The settings on record: 50 mM phosphate buffer (pH 6.0), 250 mM NaCl, 95° C. for 1 hour. The procedure:
When the enzyme is treated in 50 mM phosphate buffer (pH 6.0) containing 250 mM NaCl at 95° C. for 1 hour, its activity is retained at the level of 80% based on the initial level. The enzyme has an optimum pH of pH 6.0 and an optimum temperature of 100° C. or higher in terms of the enzymatic activity.

Another data set is described as follows: Optimum pH. The conditions noted are these: p-Nph-β-D-Glcp, 90° C. The format is biochemical. As to the method:
The pH of the reaction mixtures ranged from 3.9 to 5.5 in sodium acetate buffer and from 5.5 to 7.99 in phosphate buffer. Optical density measurements at A405 were performed as described for the enzyme assays.

Read-outs that look alike come from different tables or passages of the source. Some results are limits rather than exact numbers.

T1 sequence (P22498 whole entry N62M/R140P/N205M/N208M/A235H/V319M/K445F/G469C): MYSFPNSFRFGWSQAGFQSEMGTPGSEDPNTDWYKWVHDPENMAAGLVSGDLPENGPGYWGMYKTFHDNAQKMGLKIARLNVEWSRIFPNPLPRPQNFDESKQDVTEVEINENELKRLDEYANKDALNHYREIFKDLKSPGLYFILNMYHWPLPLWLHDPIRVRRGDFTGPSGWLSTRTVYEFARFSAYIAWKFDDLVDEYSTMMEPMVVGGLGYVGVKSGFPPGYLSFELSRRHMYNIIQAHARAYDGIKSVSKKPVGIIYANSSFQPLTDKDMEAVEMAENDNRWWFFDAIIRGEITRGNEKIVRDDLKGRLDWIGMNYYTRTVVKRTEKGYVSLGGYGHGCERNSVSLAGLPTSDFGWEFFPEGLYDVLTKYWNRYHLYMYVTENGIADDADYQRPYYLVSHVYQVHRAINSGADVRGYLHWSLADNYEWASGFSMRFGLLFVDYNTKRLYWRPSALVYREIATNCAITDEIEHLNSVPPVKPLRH

Regarding `CCCCCCO[C@@H]1O[C@H](CO)[C@@H](O)[C@H](O)[C@H]1O` [n-Hexyl-β-D-Glcp], in data set [1], the Michaelis-Menten constant (Km) is 1000 µM and the turnover number (kcat) was 263 s⁻¹.

Regarding `O=[N+]([O-])c1ccc(O[C@@H]2O[C@H](CO)[C@@H](O)[C@H](O)[C@H]2O)cc1` [p-Nph-β-D-Glcp, p-nitrophenyl β-D-glucopyranoside], in data set [1], the Km is 500 µM and the kcat is 542 s⁻¹.

`O=[N+]([O-])c1ccc(O[C@@H]2OC[C@@H](O)[C@H](O)[C@H]2O)cc1` [p-Nph-β-D-Xylp]: in data set [1], the Km was 4000 µM and the kcat was 284 s⁻¹.

Consider `OC[C@H]1O[C@@H](O[C@H]2[C@H](O)[C@@H](O)[C@H](O[C@H]3[C@H](O)[C@@H](O)[C@H](O[C@H]4[C@H](O)[C@@H](O)C(O)O[C@@H]4CO)O[C@@H]3CO)O[C@@H]2CO)[C@H](O)[C@@H](O)[C@@H]1O` (some centres unmarked) [Cellotetraose], for which, in [2], the “efficiency of hydrolysis by His-BGPh” value is “low efficiency”. In addition, in data set [1], the kcat is 584 s⁻¹ and the “efficiency of hydrolysis by Sβ-gly” value is recorded as “high efficiency”. Further, the Michaelis-Menten constant (Km) in [1] (read-out: Km) is 1700 µM.

For the molecule `CCCCCO[C@@H]1O[C@H](CO)[C@@H](O)[C@H](O)[C@H]1O` [n-Amyl-β-D-Glcp], in [1], the Km was 1100 µM and the kcat is 256 s⁻¹.

For Cellobiose, the kcat in data set [2] is 194 s⁻¹. In [1], the Km was 30000 µM and the kcat was 1333 s⁻¹.

Regarding `OCc1ccccc1O[C@@H]1O[C@H](CO)[C@@H](O)[C@H](O)[C@H]1O` [Salicin], in [1], the Km was 5000 µM and the kcat was 880 s⁻¹.

Consider `O=[N+]([O-])c1ccc(O[C@@H]2O[C@H](CO)[C@H](O)[C@H](O)[C@H]2O)cc1` [p-Nph-β-D-Galp], for which, in [1], the Km is 4700 µM and the turnover number (kcat) was 1020 s⁻¹.

Regarding `CCCCCCCCO[C@@H]1O[C@H](CO)[C@@H](O)[C@H](O)[C@H]1O` [n-Octyl-β-D-Glcp], in data set [3], the “kcat/Km relative to that for laminaribiose” value is given as 0.48 fold and the “kcat/Km relative to that for p-Nph-β-D-Glcp” value came out at 0.4 fold. Moreover, in [1], the Michaelis constant (Km) is 700 µM and the catalytic constant (kcat) was 313 s⁻¹.

As for `OC[C@H]1O[C@@H](OC[C@H]2O[C@@H](O)[C@H](O)[C@@H](O)[C@@H]2O)[C@H](O)[C@@H](O)[C@@H]1O` [β-Gentiobiose], in [1], the kcat is 1360 s⁻¹. Further, in [1] (read-out: Km), the Km is 100000 µM.

For `OC[C@H]1O[C@@H](O[C@H]2[C@H](O)[C@@H](O)[C@H](O[C@H]3[C@H](O)[C@@H](O)C(O)O[C@@H]3CO)O[C@@H]2CO)[C@H](O)[C@@H](O)[C@@H]1O` (some centres unmarked) [Cellotriose], in data set [2], the “efficiency of hydrolysis by His-BGPh” value is “low efficiency”. In data set [1], the kcat was 197 s⁻¹ and the “efficiency of hydrolysis by Sβ-gly” value is given as “high efficiency”. For the same molecule, the Km in data set [1] (read-out: Km) was 3000 µM.

Consider `OC[C@H]1O[C@@H](O[C@H]2[C@H](O)[C@@H](CO)OC(O)[C@@H]2O)[C@H](O)[C@@H](O)[C@@H]1O` (some centres unmarked) [Laminaribiose], for which the kcat in data set [2] amounted to 184 s⁻¹. Also, in [1], the Km is 1000 µM and the kcat was 908 s⁻¹.

B1: his-tagged BGPh from P. horikoshii (His-BGPh) (Pyrococcus horikoshii OT3) (protein)
chain: MPLKFPEMFLFGTATSSHQIEGNNRWNDWWYYEQIGKLPYRSGKACNHWELYRDDIQLMTSLGYNAYRFSIEWSRLFPEENKFNEDAFMKYREIIDLLLTRGITPLVTLHHFTSPLWFMKKGGFLREENLKHWEKYIEKVAELLEKVKLVATFNEPMVYVMMGYLTAYWPPFIRSPFKAFKVAANLLKAHAIAYELLHGKFKVGIVKNIPIILPASDKERDRKAAEKADNLFNWHFLDAIWSGKYRGVFKTYRIPQSDADFIGVNYYTASEVRHTWNPLKFFFEVKLADISERKTQMGWSVYPKGIYMALKKASRYGRPLYITENGIATLDDEWRVEFIIQHLQYVHKAIEDGLDVRGYFYWSFMDNYEWKEGFGPRFGLVEVDYQTFERRPRKSAYVYGEIARSKEIKDELLKRYGLPELQL
Molecule B1 gave an optimum temperature in the data set “Optimum temperature” of at least 100 °C. Besides, the Km in data set [4] amounted to 350 µM; in data set [5] it was 100 µM; in data set [6], 50 µM; in data set [7] it was 540 µM; in data set [8], 80 µM; in data set [10], 2020 µM. Moreover, the Km amounted to 30 µM in data set [11]; 200 µM in [12]; 80 µM in data set [13]; 40740 µM in data set [14]; 1300 µM in data set [15]; 1960 µM in data set [17]. For the same molecule, the kcat in data set [4] came to 79 s⁻¹; in data set [5], 3 s⁻¹; in data set [6] it was 43 s⁻¹; in data set [7], 33 s⁻¹; in data set [8], 39 s⁻¹; in data set [9] it was 2 s⁻¹. Besides, the catalytic constant (kcat) in data set [10] is 31 s⁻¹; in data set [11], 36 s⁻¹; in data set [12] it was 34 s⁻¹; in data set [13] it was 37 s⁻¹; in [14], 35 s⁻¹; in [15] it was 123 s⁻¹. Further, in data set [17], the kcat worked out at 44 s⁻¹. The kcat/Km was determined as 225670 M⁻¹ s⁻¹ in [4]; 31830 M⁻¹ s⁻¹ in data set [5]; 944370 M⁻¹ s⁻¹ in [6]; 60280 M⁻¹ s⁻¹ in [7]; 471570 M⁻¹ s⁻¹ in [8]; 14600 M⁻¹ s⁻¹ in data set [9]. The kcat/Km in data set [10] came out at 15110 M⁻¹ s⁻¹; in data set [11] it was 1.1529e+06 M⁻¹ s⁻¹; in data set [12], 170700 M⁻¹ s⁻¹; in data set [13], 469620 M⁻¹ s⁻¹; in data set [14], 850 M⁻¹ s⁻¹; in [15], 94340 M⁻¹ s⁻¹. Further, the kcat/Km in data set [17] was determined as 22200 M⁻¹ s⁻¹. In [16], the “subsite affinity A(C11) to bind a long alkyl chain (C11)” value is 4.26 kcal/mol. For the same molecule, in data set [18], the “activity retained based on the initial level” value amounted to 80%. The “optimum pH” value in the data set “Optimum pH” turned out to be 6.0.
